Reference: PMC3468530, “Structural and Enzymatic characterization of the lactonase SisLac from Sulfolobus islandicus” (PLoS ONE, 2012)

B1: SsoPox, Phosphotriesterase-Like Lactonase from Sulfolobus solfataricus (enzyme)
chain: MRIPLVGKDSIESKDIGFTLIHEHLRVFSEAVRQQWPHLYNEDEEFRNAVNEVKRAMQFGVKTIVDPTVMGLGRDIRFMEKVVKATGINLVAGTGIYIYIDLPFYFLNRSIDEIADLFIHDIKEGIQGTLNKAGFVKIAADEPGITKDVEKVIRAAAIANKETKVPIITHSNAHNNTGLEQQRILTEEGVDPGKILIGHLGDTDNIDYIKKIADKGSFIGLDRYGLDLFLPVDKRNETTLRLIKDGYSDKIMISHDYCCTIDWGTAKPEYKPKLAPRWSITLIFEDTIPFLKRNGVNEEVIATIFKENPKKFFS
notes: SsoPox, Phosphotriesterase-Like Lactonase of Sulfolobus solfataricus (strain MT4, GenBank AAW47234.1); made from the plasmid pET22b-SsoPox; Plasmid pET22b-SsoPox (GeneArt); also called wt SsoPox; source: E. coli BL21(DE3)-pGro7/GroEL, purified (70°C heat step, ammonium sulfate precipitation, size exclusion chromatography)

Experiments:
[1] = target: SisLac, Phosphotriesterase-Like Lactonase from Sulfolobus islandicus strain M.16.4 (Sulfolobus islandicus strain M.16.4); assay: dynamic light scattering; room temperature, 30 µL of purified protein at 2.5 mg/mL in activity buffer (HEPES 50 mM pH 8, NaCl 150 mM, CoCl2 0.2 mM), 633 nm
[2] = target: SisLac, Phosphotriesterase-Like Lactonase from Sulfolobus islandicus strain M.16.4 (Sulfolobus islandicus strain M.16.4); assay: SEC-MALS; KW803 column (Shodex), room temperature (25°C), 0.5 ml/min, activity buffer (HEPES 50 mM, NaCl 150 mM, CoCl2 0.2 mM) with pH adjusted to 7.3; static and quasi-elastic light scattering, refractometry
[3] = target: the molecule itself; assay: as above

| Molecule | stoichiometry N [1] | stoichiometry N [2] | stoichiometry N [3] |
| --- | --- | --- | --- |
| SisLac, Phosphotriesterase-Like Lactonase from Sulfolobus islandicus strain M.16.4 (enzyme) | 2 | 2 | – |
| B1 | – | – | 2 |
